{"source": "patent US20100028347A1", "about": "(Eli Lilly, published 2010)", "binders": {"B1": {"name": "anti-human VEGFR-1 antibody 18F1 (antibody, V domains shown)", "VH": "QAQVVESGGGVVQSGRSLRLSCAASGFAFSSYGMHWVRQAPGKGLEWVAVIWYDGSNKYYADSVRGRFTISRDNSENTLYLQMNSLRAEDTAVYYCARDHYGSGVHHYFYYGLDVWGQGTTVTVSS", "VL": "not shown", "notes": "Fully human antibody (gamma heavy chain, kappa light chain) from hybridomas of KM transgenic mice, purified; The light chain entry runs a few residues into the kappa constant region; also called MC-18F1; IMC-18F1"}}, "key": {"[1]": {"molecular_target": "T1, soluble recombinant human VEGFR-1 alkaline phosphatase (human, UniProt P17948 27-758)", "T1 construct": "Made in house in stably transfected cells; also called rhuVEGFR-I AP; VEGFR-I AP; not shown: alkaline phosphatase fusion partner", "T1 sequence (P17948 27-758)": "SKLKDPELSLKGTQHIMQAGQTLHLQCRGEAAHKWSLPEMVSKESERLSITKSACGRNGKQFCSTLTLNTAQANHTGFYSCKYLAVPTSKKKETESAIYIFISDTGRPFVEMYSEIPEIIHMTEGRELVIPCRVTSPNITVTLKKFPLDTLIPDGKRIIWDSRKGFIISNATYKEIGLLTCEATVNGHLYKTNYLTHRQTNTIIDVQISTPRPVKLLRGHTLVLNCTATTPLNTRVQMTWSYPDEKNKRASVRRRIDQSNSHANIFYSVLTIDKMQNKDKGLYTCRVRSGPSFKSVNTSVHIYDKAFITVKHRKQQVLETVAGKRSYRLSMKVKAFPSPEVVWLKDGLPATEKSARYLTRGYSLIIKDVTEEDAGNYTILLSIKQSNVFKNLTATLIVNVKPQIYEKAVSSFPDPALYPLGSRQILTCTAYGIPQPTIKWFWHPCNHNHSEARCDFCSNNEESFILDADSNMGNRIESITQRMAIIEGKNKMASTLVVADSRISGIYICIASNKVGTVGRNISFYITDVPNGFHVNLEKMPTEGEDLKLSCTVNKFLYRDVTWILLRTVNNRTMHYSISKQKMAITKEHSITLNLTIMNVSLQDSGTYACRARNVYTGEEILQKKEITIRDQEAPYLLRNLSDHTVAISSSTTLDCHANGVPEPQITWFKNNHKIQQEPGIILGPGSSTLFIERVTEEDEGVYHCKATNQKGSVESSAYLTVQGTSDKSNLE", "experiment": "ELISA, purified antibody on rhuVEGFR-1 AP coated plate (given as ED50)", "method": "(§1) Specifically, hybridoma supernatants or purified antibodies were diluted in PBS with 5% FBS and 0.05% Tween 20 (ELISA buffer) and incubated in rhuVEGFR-I AP or AP coated 96-well microtiter plates for 30 minutes. Plates were washed with the ELISA buffer and incubated with goat anti-mouse IgG-horseradish peroxidase (HRP) conjugate (BioSource International, Camarillo, Calif.) for 30 minutes. TMB (3,3′,5,5′-tetra-methylbenzidine) substrate (Kierkegaard and Perry Lab, Inc., Gaithersburg, Md.) was used for color development following the manufacturer's instruction. The absorbance at 450 nanometers (nm) was read for quantification of binding activity of antibodies. For identification of the hybridomas producing anti-VEGFR-I antibodies, hybridoma supernatants were preincubated with VEGFR-I AP for 1 hour. The mixtures were incubated with the ELISA buffer in VEGF or P1GF coated 96-well microtiter plates for 1 hour. PNPP (p-nitrophenyl phosphate) substrate for AP was used for color development following the manufacturer's instruction. The absorbance at 405 nm was read for quantification of VEGFR-I binding to VEGF or P1GF. Optical density (OD) values were read on a microtiter plate reader (Molecular Devices Corp., Sunnyvale, Calif.). ED50 and IC50 of the antibodies were analyzed using GraphPad Prism 3 software (GraphPad Software, Inc., San Diego, Calif.)."}, "[2]": {"molecular_target": "T1, soluble recombinant human VEGFR-1 …", "experiment": "blocking ELISA: antibody preincubated with VEGFR-1 AP, binding to VEGF coated plate", "method": "as §1"}, "[3]": {"molecular_target": "T2, human VEGFR-2 alkaline phosphatase (human, UniProt P35968 20-764)", "T2 construct": "also called huVEGFR-2-AP; not shown: alkaline phosphatase fusion partner; not described", "T2 sequence (P35968 20-764)": "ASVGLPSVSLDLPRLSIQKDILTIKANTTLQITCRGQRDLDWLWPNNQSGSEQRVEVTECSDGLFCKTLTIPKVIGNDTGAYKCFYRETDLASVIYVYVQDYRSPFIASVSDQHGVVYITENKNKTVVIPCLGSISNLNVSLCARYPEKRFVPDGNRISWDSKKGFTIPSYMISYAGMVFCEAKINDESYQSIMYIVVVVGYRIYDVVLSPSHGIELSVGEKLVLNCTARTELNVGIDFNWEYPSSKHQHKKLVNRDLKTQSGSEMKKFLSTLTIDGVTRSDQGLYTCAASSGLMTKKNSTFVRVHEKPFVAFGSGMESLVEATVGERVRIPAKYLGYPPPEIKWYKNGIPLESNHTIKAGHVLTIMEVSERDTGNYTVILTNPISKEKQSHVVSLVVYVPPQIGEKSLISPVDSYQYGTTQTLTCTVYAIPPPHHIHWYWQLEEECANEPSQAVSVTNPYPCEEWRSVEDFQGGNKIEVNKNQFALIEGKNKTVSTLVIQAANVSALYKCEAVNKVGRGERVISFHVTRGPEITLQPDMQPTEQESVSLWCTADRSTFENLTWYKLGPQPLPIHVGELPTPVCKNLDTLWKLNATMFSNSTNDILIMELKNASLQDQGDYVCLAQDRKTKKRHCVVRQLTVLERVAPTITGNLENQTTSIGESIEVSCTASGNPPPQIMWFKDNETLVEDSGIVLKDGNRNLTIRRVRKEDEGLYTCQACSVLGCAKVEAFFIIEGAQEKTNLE", "experiment": "ELISA: antibody dilutions on plate coated with 1 µg/ml human VEGFR-2 alkaline phosphatase, HRP secondary, O.D. 450", "method": "(§2) To determine the specificity of an anti-VEGFR-1 monoclonal antibody to human VEGFR-I, purified antibodies 18F1 were tested in an ELISA-based assay. One μg/ml of recombinant human VEGFR-I Fc, mouse VEGFR-I Fc, mouse VEGFR-2 Fc, or human VEGFR-2 alkaline phosphatase was coated with PBS in a 96-well microtiter plates at 4° C. over night. After wash, the receptor coated plates were blocked with PBS containing 5% Dry Milk and 0.05% Tween 20. Serial dilutions of primary antibody 18F1 to human VEGFR-I, MF1 to mouse VEGFR-I, IC1 1 to human VEGFR-2, or DClOl to mouse VEGFR-2 were incubated in the receptor-coated plates for 30 minutes. After wash secondary anti-primary HRP conjugate antibodies was incubated in the plates for 30 minutes. Plates were washed and incubated with the substrate TMB (3,3′,5,5′-tetra-methylbenzidine) for color development. The absorbance at 450 nm was read as OD values for quantification of binding activity of antibodies. Data were analyzed using a GraphPad Prism Software."}, "mouse VEGFR-2 Fc": {"molecular_target": "T3, mouse VEGFR-2 Fc (mouse, UniProt P35918 20-762, limits assumed)", "T3 construct": "not shown: Fc part; not described", "T3 sequence (P35918 20-762 limits assumed)": "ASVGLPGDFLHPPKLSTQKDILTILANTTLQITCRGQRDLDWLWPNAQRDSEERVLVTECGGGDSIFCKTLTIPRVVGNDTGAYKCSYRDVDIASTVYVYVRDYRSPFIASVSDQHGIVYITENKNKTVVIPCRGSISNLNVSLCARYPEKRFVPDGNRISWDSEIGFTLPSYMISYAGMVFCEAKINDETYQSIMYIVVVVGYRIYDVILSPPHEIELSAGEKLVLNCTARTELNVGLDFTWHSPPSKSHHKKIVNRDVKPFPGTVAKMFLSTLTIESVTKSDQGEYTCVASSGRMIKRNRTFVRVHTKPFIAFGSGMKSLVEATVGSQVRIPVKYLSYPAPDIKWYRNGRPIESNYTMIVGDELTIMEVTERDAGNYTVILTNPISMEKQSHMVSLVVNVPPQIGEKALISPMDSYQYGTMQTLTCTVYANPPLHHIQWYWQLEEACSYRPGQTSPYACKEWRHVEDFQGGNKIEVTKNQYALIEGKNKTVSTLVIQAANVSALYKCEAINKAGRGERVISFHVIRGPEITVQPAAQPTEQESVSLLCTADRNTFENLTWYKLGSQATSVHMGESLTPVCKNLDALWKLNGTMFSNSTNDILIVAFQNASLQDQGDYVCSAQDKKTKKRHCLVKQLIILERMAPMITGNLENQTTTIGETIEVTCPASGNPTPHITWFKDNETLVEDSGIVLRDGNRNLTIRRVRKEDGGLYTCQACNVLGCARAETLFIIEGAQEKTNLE", "experiment": "ELISA: antibody dilutions on plate coated with 1 µg/ml mouse VEGFR-2 Fc, HRP secondary, O.D. 450", "method": "as §2"}, "[4]": {"molecular_target": "native VEGFR-1 expressed on the cell surface (human, UniProt P17948 27-1338)", "sequence (P17948 27-1338)": "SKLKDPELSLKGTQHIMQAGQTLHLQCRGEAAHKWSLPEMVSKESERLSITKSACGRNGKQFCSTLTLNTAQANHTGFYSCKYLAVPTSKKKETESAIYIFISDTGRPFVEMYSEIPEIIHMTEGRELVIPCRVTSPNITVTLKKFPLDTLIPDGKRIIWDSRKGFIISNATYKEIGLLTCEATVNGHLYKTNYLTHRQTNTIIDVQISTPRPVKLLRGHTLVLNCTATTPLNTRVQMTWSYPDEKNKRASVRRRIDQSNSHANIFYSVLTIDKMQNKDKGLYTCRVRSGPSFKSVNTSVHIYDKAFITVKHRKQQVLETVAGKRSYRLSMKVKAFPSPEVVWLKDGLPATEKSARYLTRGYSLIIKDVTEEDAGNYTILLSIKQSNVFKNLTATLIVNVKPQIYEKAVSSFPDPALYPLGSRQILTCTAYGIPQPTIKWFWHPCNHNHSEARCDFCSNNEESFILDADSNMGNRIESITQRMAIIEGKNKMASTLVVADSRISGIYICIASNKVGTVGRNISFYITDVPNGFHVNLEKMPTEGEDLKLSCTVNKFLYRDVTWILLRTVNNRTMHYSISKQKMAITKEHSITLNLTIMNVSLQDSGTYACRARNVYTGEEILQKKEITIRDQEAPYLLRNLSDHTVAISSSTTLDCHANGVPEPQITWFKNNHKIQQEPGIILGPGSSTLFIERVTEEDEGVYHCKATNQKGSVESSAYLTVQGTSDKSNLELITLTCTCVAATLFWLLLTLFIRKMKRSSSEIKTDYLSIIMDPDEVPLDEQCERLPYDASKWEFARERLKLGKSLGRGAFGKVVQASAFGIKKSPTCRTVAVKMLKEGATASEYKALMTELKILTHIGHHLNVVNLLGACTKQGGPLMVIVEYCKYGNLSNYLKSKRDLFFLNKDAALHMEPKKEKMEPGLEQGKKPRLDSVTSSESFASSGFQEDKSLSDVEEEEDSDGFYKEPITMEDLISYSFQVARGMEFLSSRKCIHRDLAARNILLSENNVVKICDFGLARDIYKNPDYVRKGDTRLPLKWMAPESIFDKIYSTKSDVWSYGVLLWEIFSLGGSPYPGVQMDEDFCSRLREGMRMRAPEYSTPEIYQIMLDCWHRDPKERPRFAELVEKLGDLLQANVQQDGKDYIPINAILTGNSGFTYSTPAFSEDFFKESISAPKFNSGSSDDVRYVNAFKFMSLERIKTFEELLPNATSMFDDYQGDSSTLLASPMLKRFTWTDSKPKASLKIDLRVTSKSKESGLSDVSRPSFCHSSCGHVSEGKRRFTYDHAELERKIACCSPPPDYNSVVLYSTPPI", "experiment": "cell-based or functional assay"}, "mouse VEGFR-1 Fc": {"molecular_target": "T4, mouse VEGFR-1 Fc (mouse, UniProt P35969 23-759, limits assumed)", "T4 construct": "not shown: Fc part; not described", "T4 sequence (looked up)": "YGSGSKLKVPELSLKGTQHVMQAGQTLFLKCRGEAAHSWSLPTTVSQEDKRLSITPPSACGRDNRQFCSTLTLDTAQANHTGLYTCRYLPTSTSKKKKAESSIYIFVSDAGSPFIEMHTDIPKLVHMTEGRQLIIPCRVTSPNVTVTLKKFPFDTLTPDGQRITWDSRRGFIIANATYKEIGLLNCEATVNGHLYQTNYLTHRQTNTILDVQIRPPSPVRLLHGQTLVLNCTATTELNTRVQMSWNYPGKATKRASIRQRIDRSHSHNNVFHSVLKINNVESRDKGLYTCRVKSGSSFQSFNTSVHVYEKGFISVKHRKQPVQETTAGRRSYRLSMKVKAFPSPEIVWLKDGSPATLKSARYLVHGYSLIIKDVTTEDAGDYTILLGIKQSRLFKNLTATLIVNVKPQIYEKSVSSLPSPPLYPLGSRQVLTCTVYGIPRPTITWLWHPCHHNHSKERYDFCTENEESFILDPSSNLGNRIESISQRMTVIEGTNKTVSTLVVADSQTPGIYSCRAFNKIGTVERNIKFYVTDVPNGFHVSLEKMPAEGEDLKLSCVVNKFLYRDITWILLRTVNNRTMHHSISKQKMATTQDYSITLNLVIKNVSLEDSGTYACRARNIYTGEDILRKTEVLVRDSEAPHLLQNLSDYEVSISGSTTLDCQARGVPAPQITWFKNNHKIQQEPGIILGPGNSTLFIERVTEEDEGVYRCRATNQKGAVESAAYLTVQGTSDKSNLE", "experiment": "ELISA: antibody dilutions on plate coated with 1 µg/ml mouse VEGFR-1 Fc, HRP secondary, O.D. 450", "method": "as §2"}, "[5]": {"molecular_target": "T5, recombinant human VEGFR-1 Fc (human, UniProt P17948-2 27-687, limits assumed)", "T5 construct": "Bought from R&D Systems; also called rhuVEGFR-1 Fc; HuVEGFR-I-Fc; not shown: Fc part", "T5 sequence (P17948 other isoform, or with tags, fused parts or gaps limits assumed)": "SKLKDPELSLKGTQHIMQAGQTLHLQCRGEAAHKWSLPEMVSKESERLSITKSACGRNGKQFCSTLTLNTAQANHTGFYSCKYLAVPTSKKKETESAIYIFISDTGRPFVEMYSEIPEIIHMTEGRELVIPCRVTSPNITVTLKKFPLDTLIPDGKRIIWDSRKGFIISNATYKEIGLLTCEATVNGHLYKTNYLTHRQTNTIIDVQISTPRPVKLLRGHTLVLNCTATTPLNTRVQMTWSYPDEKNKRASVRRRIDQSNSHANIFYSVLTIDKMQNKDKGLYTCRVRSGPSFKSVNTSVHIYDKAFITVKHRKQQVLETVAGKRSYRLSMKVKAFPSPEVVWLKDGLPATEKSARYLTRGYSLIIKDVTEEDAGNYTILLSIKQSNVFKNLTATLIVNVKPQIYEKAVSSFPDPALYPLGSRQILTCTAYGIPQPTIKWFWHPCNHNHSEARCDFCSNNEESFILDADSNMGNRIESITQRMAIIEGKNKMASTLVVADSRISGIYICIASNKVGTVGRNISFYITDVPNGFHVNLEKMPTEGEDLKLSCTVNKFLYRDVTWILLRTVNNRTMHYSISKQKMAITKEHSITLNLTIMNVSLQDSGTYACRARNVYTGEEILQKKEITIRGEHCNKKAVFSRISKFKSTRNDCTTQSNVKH", "experiment": "ELISA: antibody dilutions on plate coated with 1 µg/ml human VEGFR-1 Fc, HRP secondary, O.D. 450", "method": "as §2"}}}
{"binder": "B1", "values": [{"measurement": "EC50", "setting": "[1]", "result": 0.1, "unit": "nM"}, {"measurement": "IC50", "setting": "[2]", "result": 0.84, "unit": "nM"}, {"measurement": "binding result", "setting": "[3]", "result": "no binding (tested: 1 µg/ml)"}, {"measurement": "binding result", "setting": "mouse VEGFR-2 Fc", "result": "no binding (tested: 1 µg/ml)"}, {"measurement": "VEGF-A and P1GF stimulated proliferation of DU4475 breast carcinoma cells (estimated IC50)", "setting": "[4]", "result": "30 to 50", "unit": "nM"}, {"measurement": "binding result", "setting": "mouse VEGFR-1 Fc", "result": "no binding (tested: 1 µg/ml)"}, {"measurement": "EC50 (read off the curve)", "setting": "[5]", "result": "~3", "unit": "ng/mL"}]}
